Experimental findings from publication PMC10625565 are described below.

For this assay, the target named is GST-PpROP4CA (G15V). As to the kind of experiment: pull-down (MBP pull-down, Coomassie-stained SDS-PAGE, band quantification). As to conditions: chain shown with the change; three replicates; parent: est. 0.31; read off a plot.
GST-PpROP4CA (G15V), sequence (chain, as listed by the source G15V): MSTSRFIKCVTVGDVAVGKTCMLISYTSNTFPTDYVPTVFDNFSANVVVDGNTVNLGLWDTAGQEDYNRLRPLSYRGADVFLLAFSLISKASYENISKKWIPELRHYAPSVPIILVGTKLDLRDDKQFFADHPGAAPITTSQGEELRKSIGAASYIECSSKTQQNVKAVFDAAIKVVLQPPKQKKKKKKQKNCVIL

B1: MBP-PpRopGAP1 (wild type), A0A2K1KNT6 R239L (protein)
chain: MTQVLPTQIHLGSFTPDQSESEDYVNALHYVSDTDTDGYSGNHASPMILGDATISIRELCKEPEARKSGLSHSSSFSSITRGRWGEIGARSRNGSLNRRHSSFRSGSFNRSNNDQERERSAQLSLVALLLATVRRSVLTMCQDVEEGDESSLEIGWPTDVQHVAHVTFDRYNGFLGLPQEFEVEVPGRVPSASQSVFGVSAESMQCSYDHNGNSVPTILLLMQERLYHQGGLKAEGIFLINAENSHHEHVRDQLNKGIVPMDIDSYCLAGLIKAWFRELPQGVLDVLTPEQVLECHTEEESVALVKLLPPTQAALLDWAVNLMADVVQDEVVNKMNARNIAMVFAPNMTQMADPLTALMHAVQVMNLLKTLILRTLKDREEAILEQAQGLTRAEASEGDEPDSECNNVVLTSQERQNSLREEEASKVDCDEYSQRILIPVKRNTKVNSISKSGNLVNTIDHNNQRVEAW
As to B1, the other: Protein ratio is 0.25.

B2: MBP-PpRopGAP1 (wild type), A0A2K1KNT6 H165A (protein)
chain: MTQVLPTQIHLGSFTPDQSESEDYVNALHYVSDTDTDGYSGNHASPMILGDATISIRELCKEPEARKSGLSHSSSFSSITRGRWGEIGARSRNGSLNRRHSSFRSGSFNRSNNDQERERSAQLSLVALLLATVRRSVLTMCQDVEEGDESSLEIGWPTDVQHVAAVTFDRYNGFLGLPQEFEVEVPGRVPSASQSVFGVSAESMQCSYDHNGNSVPTILLLMQERLYHQGGLKAEGIFRINAENSHHEHVRDQLNKGIVPMDIDSYCLAGLIKAWFRELPQGVLDVLTPEQVLECHTEEESVALVKLLPPTQAALLDWAVNLMADVVQDEVVNKMNARNIAMVFAPNMTQMADPLTALMHAVQVMNLLKTLILRTLKDREEAILEQAQGLTRAEASEGDEPDSECNNVVLTSQERQNSLREEEASKVDCDEYSQRILIPVKRNTKVNSISKSGNLVNTIDHNNQRVEAW
For the molecule B2, the other: Protein ratio is 0.1.
